Results published in the supplement of paper PMC9233669.
This sample holds only a part of the variants without activity.

Legend:
biotinyl-Phe-oxazolone = assay: self-aminoacylation, catalytic enhancement (BFO) (fold over background); higher = more active; k-Seq, kA / k0A0; sequences stand for … in GGGAAUGGAUCCACAUCUACGAAUUC…UUCACUGCAGACUUGACGAAGCUG
In short: (§1)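 Each biotinyl-aminoacyl-oxazolone, at 2–1250 μM, was incubated with mutagenized RNA pools (0.43 μM) carrying a 21-nt variable region. The 50 μL reactions contained HEPES/NaCl/KCl/MgCl2/CaCl2 buffer with 5% acetonitrile at pH 6.9–7.0 and ran for 90 minutes at room temperature. After streptavidin capture, RNA was measured by qPCR in triplicate and by Illumina sequencing, and catalytic enhancement was calculated as median kA over the uncatalyzed rate from a pseudo-first-order fit of per-sequence fraction reacted.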

biotinyl-Ile-oxazolone = assay: self-aminoacylation, catalytic enhancement (BIO) (fold over background); higher = more active; k-Seq, kA / k0A0; sequences stand for … in GGGAAUGGAUCCACAUCUACGAAUUC…UUCACUGCAGACUUGACGAAGCUG
In short: as §1

biotinyl-Met-oxazolone = assay: self-aminoacylation, catalytic enhancement (BMO) (fold over background); higher = more active; k-Seq, kA / k0A0; sequences stand for … in GGGAAUGGAUCCACAUCUACGAAUUC…UUCACUGCAGACUUGACGAAGCUG
In short: as §1

biotinyl-Val-oxazolone = assay: self-aminoacylation, catalytic enhancement (BVO) (fold over background); higher = more active; k-Seq, kA / k0A0; sequences stand for … in GGGAAUGGAUCCACAUCUACGAAUUC…UUCACUGCAGACUUGACGAAGCUG
In short: as §1

biotinyl-Leu-oxazolone = assay: self-aminoacylation, catalytic enhancement (BLO) (fold over background); higher = more active; k-Seq, kA / k0A0; sequences stand for … in GGGAAUGGAUCCACAUCUACGAAUUC…UUCACUGCAGACUUGACGAAGCUG
In short: as §1

biotinyl-Trp-oxazolone = assay: self-aminoacylation, catalytic enhancement (BWO) (fold over background); higher = more active; k-Seq, kA / k0A0; sequences stand for … in GGGAAUGGAUCCACAUCUACGAAUUC…UUCACUGCAGACUUGACGAAGCUG
In short: as §1

Sequence	self-aminoacylation (biotinyl-Phe-oxazolone)	self-aminoacylation (biotinyl-Ile-oxazolone)	self-aminoacylation (biotinyl-Met-oxazolone)	self-aminoacylation (biotinyl-Val-oxazolone)	self-aminoacylation (biotinyl-Leu-oxazolone)	self-aminoacylation (biotinyl-Trp-oxazolone)
AUUCACCGGGGUCAUCGGGUG [Fam2.2 aminoacylation ribozyme variant]	80.5	6.47	8.15	7.4	10.7	9.14
AUUACCCUGGGUAUCGAGUGA [Fam2.1 aminoacylation ribozyme variant]	57.8	4.51	9.85	4.62	10.9	11.2
CUACUUUAAACAAUCGGACUG [Fam1A.1 aminoacylation ribozyme variant]	0.698	0.901	0.874	0.757	0.759	0.809
AACUUUGCUAGUAGUCGCAAG [Fam3.1 aminoacylation ribozyme variant]	3.31	2.68	2.63	2.67	2.9	3.53
AUUACCCUGGUCAUCUGGUGA [Fam2.1 aminoacylation ribozyme variant]	31.1	3.08	5	2.72	5.37	4.53
CUACUCCAGACAAUCGGUCUG [Fam1A.1 aminoacylation ribozyme variant]	0.42	1	1.29	1.14	1.07	0.923
AUUCAACUAGGUCACCGGGUG [Fam2.2 aminoacylation ribozyme variant]	38.8	4.11	5.89	4.37	6.53	5.05
AAGCUUGCUAAUCGUCGCAAG [Fam3.1 aminoacylation ribozyme variant]	2.14	1.85	1.55	1.45	1.65	2.85
AUUCAACUAGGUCAUCCGGUG [Fam2.2 aminoacylation ribozyme variant]	45.8	4.6	5.49	3.72	8.12	6.62
AUUCACCAGGGUCAUCGGGUG [Fam2.2 aminoacylation ribozyme variant]	57.5	4.8	7.51	5.45	9.42	6.99
AUUACCCUGGCCAUCGAGUUA [Fam2.1 aminoacylation ribozyme variant]	0.675	1.38	1.26	1.12	1.28	0.729
AAUUUUGCUAAUCGUCGCAAG [Fam3.1 aminoacylation ribozyme variant]	2.37	1.91	1.53	1.56	1.37	1.62
AAGUUUGCUAAUAGUCGUAAG [Fam3.1 aminoacylation ribozyme variant]	33	1.19	1.34	1.05	0.914	8.22
CCACACUUCAGGCAAUCGGGC [Fam1B.1 aminoacylation ribozyme variant]	11	2.46	1.37	3.35	2.45	2.21
CCACACUACAAGCAAUCGGUG [Fam1B.1 aminoacylation ribozyme variant]	31.8	3.62	4.92	2.85	6.9	5.03
CCACGCUACAAGCAAUCGGUC [Fam1B.1 aminoacylation ribozyme variant]	1.3	0.937	0.858	0.999	0.851	1.2
AUUCACCUAGGUCAUAGGGUA [Fam2.2 aminoacylation ribozyme variant]	0.412	1.21	0.923	1.16	0.856	1.67
AUUGCCCUGGUCAUCGAGUAA [Fam2.1 aminoacylation ribozyme variant]	28.4	3.56	8.54	4.02	8.75	8.07
CCACACUUCUAUCAAUCGGUC [Fam1B.1 aminoacylation ribozyme variant]	0.846	0.657	0.718	0.743	0.521	0.659
AUCCACCUAGGUCAACGGGUG [Fam2.2 aminoacylation ribozyme variant]	30.3	2.4	3.17	3.34	4.15	4.49
AAGUAUGCUAUUAGUCGCAAG [Fam3.1 aminoacylation ribozyme variant]	1.49	1.66	1.38	1.59	1.68	1.76
